Assay results published in article PMC4571291, “How Leiomodin and Tropomodulin use a common fold for different actin assembly functions” (Nature Communications, 2015).

Target: actin (UniProt P68135 1-377)
Assay: ITC; Tmod or Lmod construct in the syringe titrated into LatB-actin in the cell (LatB:actin 1.2:1); 20 mM HEPES pH 7.5, 100 mM NaCl, 0.2 mM ATP, 1 mM DTT; temperature and concentrations listed in the figures
Details: both partners purified

B1: TL1_(ABS2) (domain or fragment)
chain: VIKPTQYKPVPDEEPNSTDVEETLERIKNNDPKLEEVNLNNIRNIPIPTLKAYAEALKENSYVKKFALANTRADDHVAFAIAIMLKANKTITSLNLDSNHITGKGILAIFRALLQNNTLTELRFHNQRHICGGKTEMEIAKLLKENTTLLKLGYHFELAGPRMTVTNLLSRNMDKQRQKRLQEQRQAQ
notes: human tropomodulin 1 residues 164-229; human leiomodin 1 residues 365-486; The junction was made with a silent NruI site; cloned in vector pTYB1; also called Tmod1-Lmod1 ABS2 hybrid construct
  stoichiometry N: 2

B2: Lmod2_(ABS2) (domain or fragment)
chain: NGRNTESPAAIHPCGNPTVIEDALDKIKSNDPDTTEVNLNNIENITTQTLTRFAEALKDNTVVKTFSLANTHADDSAAMAIAEMLKVNEHITNVNVESNFITGKGILAIMRALQHNTVLTELRFHNQRHIMGSQVEMEIVKLLKENTTLLRLGYHFELPGPRMSMTSILTRNMDKQRQKRLQEQKQQE
notes: the limits 180-367 are printed for the construct of the same name made for cell expression; Cloned in vector pTYB1; also called isolated ABS2 of Lmod2
  stoichiometry N: 2

B3: TL2_(ABS2) (domain or fragment)
chain: VIKPTQYKPVPDEEPNSTDVEETLERIKNNDPKLEEVNLNNIRNIPIPTLKAYAEALKENSYVKKFSLANTHADDSAAMAIAEMLKVNEHITNVNVESNFITGKGILAIMRALQHNTVLTELRFHNQRHIMGSQVEMEIVKLLKENTTLLRLGYHFELPGPRMSMTSILTRNMDKQRQKRLQEQKQQE
notes: human tropomodulin 1 residues 164-229; The junction was made with a silent NruI site; cloned in vector pTYB1; also called Tmod1-Lmod2 ABS2 hybrid construct
  stoichiometry N: 2
